The text below walks through data of article PMC8166883 (Cellular and Molecular Immunology, 2020).

Experiment [1] concerns the target T1, FLAG-tagged human vascular endothelial growth factor-A (FLAG-hVEGF-A) (Homo sapiens, UniProt P15692-4).
T1 construct: human vascular endothelial growth factor-A; The cell-based assays used bought recombinant hVEGF165 (Pepro Tech), not this construct
In words: SPR; Biacore T200; mAb held by anti-hIgG capture antibodies amine-coupled to a CM5 chip; purified antigen serially diluted in HBS-EP+ (100, 33.3, 11.1, 3.7, 1.23, 0.412 nM) injected 240 s at 30 µL/min, 300 s dissociation; 1:1 Langmuir binding model with mass transfer; KD calculated as kd/ka. The note with it: both partners purified.

Experiment [2] concerns the target T2, histidine-tagged human semaphorin 3A fused with alkaline phosphatase (hSema3A-his-AP) (Homo sapiens, UniProt Q14563).
T2 construct: human semaphorin 3A; The expressing cells were a gift from Dr. Yoshio Goshima; the construct is not described further; source: HEK293 cells, stably expressed, purified (HisTrap Excel column, gel filtration)
In words: ELISA; antigen immobilised on MaxiSorp 384-well plates (62.5 ng/well), blocked with 1% BSA in PBS; DT40 culture supernatants 1 h at room temperature; detected by anti-hIgG-Fc HRP. The note with it: one partner purified.

T2 sequence (Q14563 21-771): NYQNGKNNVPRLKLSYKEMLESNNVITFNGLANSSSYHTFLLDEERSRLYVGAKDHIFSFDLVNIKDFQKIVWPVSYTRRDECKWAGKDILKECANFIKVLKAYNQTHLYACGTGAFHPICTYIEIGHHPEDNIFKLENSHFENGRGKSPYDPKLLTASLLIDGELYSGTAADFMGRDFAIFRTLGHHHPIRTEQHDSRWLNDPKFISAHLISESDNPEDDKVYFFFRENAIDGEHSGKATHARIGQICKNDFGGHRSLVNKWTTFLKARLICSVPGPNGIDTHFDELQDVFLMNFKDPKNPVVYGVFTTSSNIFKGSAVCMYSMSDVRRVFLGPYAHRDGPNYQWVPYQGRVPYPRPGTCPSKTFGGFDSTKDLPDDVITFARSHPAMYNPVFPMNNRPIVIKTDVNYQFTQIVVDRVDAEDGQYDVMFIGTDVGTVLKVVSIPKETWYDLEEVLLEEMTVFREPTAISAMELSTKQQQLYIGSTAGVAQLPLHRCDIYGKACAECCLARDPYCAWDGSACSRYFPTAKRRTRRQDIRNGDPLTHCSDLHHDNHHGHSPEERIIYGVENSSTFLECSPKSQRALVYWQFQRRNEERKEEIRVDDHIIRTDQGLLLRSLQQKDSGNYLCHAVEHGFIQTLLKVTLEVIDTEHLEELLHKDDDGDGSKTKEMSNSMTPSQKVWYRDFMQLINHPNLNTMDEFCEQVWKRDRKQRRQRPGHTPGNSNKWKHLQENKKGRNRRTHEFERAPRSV

B1: anti-hVEGF-A clone A033AM-19 (affinity-matured from A033) (antibody, V domains shown)
VH: EVELVQSGAEVKKPGSSVKVSCKASGGTFSDYSISWVRQAPGQGLEWMGGIIPIFGTPNYAQKFQGRVTITADESTSTAYMELSSLRSEDTAVYYCADGGAYCGGDCYSGYYYYGMDVWGQGTTVTVSS
VL: QSALTQPASVSGSPGQSITISCTGTSSDVGGYNLVSWYQQHPGKAPKLMIYQDNNKRPSGVSNRFSGSKSGNTASLTISGLQAEDEADYYCSYTNDSNSQVFGGGTKLTVL
notes: human IgG1 heavy chain constant region (CH1, hinge, CH2, CH3); as the light chain of m7 (identical LC); human Igλ constant region (hCλ) amplified from Ramos cell cDNA; Full-length human IgG1, λ; source: DT40 cells (subclone of A033 sorted after culture without TSA), secreted human IgG, purified
The Kd is the concentration at which binding is half-saturated. On to B1, for which, in experiment [1], the Kd was 0.0491 nM.

B2: anti-hSema3A clones from the L30H45(fff) single clone-derived library (three clones with identical HC and LC sequences) (antibody, V domains shown)
VH: EVQLLESGGGLVQPGGSLRLSCAASGFTFSSYWMSNEMSWVRQAPGKGLEWVSSISGGSTYYADSVKGRFTISRDNSKNTLYLQMNSLRAEDTAVYYCAKGYSGYDYYFDYWGQGTLVTVSS
VL: QSALTQPASVSGSPGQSITISCTGTSSDVGGYNYVSWYQQNPGKAPKLMIYDVSNRPSGISNRFSGSKSGNTASLTISGLQADDEADYYCTSYTNDSNSQVFGGGTKLTVL
notes: human IgG1 heavy chain constant region (CH1, hinge, CH2, CH3); human Igλ constant region (hCλ) amplified from Ramos cell cDNA; Full-length human IgG1, λ; source: DT40 L30H45(fff) cells treated with TSA for 86 days, selected on hSema3A-his-AP beads, limiting dilution cloning
On to B2, for which the binding result in experiment [2] is “binds”.
